Series [1] addresses T1, AtWOX14 (homodimer on DNA) (Arabidopsis thaliana, UniProt Q9LM84 1-211).
T1 sequence: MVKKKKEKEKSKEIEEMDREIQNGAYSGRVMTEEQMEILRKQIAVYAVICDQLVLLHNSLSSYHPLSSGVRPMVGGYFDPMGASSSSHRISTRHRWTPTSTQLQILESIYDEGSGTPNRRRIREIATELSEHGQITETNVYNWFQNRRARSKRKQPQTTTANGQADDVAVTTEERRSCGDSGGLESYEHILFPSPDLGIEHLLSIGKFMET
The series is described as follows: EMSA; 25-200 nM WOX14; dimeric shift; EMSA: 10 mM Tris (pH not stated), 50 mM NaCl, 1 mM MgCl2, 4% glycerol, 0.5 mM EDTA, 25 C 40 min, 30 ng probe in 20 uL; 6% native PAGE, 0.5x TBE, 4 C. The following applies: protein: recombinant; tags: N-terminal His (pETG20A-His); chain copies: 2.

Series [2] deals with T1, AtWOX14 (homodimer on DNA). The series is described as follows: EMSA; 50-200 nM WOX14; dimeric shift at high protein; EMSA: 10 mM Tris (pH not stated), 50 mM NaCl, 1 mM MgCl2, 4% glycerol, 0.5 mM EDTA, 25 C 40 min, 30 ng probe in 20 uL; 6% native PAGE, 0.5x TBE, 4 C. The following applies: protein: recombinant; tags: N-terminal His (pETG20A-His); chain copies: 2. (In general: Mobility shift assays separate free from complexed probe on a gel.)

Another series concerns the target T2, AtWOX14 (monomer) (Arabidopsis thaliana, UniProt Q9LM84 1-211).
T2 sequence: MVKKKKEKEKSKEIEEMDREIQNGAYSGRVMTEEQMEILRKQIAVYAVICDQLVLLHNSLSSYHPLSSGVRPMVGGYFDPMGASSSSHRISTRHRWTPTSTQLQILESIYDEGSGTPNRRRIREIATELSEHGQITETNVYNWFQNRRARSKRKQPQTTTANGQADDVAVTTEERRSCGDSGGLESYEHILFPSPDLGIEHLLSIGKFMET
In words: EMSA; 50-200 nM WOX14; monomeric shift; EMSA: 10 mM Tris (pH not stated), 50 mM NaCl, 1 mM MgCl2, 4% glycerol, 0.5 mM EDTA, 25 C 40 min, 30 ng probe in 20 uL; 6% native PAGE, 0.5x TBE, 4 C. The following applies: protein: recombinant; tags: N-terminal His (pETG20A-His).

These results are taken from paper PMC11765556, “Cytosine Methylation Changes the Preferred Cis-Regulatory Configuration of Arabidopsis WUSCHEL-Related Homeobox 14”.

B1: ER0-AT1G15640 (dsDNA)
DNA 1: AATAAGATGTACCCAATGATTGCAATGATGAGCCCAATGAGTGC
DNA 2: GCACTCATTGGGCTCATCATTGCAATCATTGGGTACATCTTATT
As for B1, in series [1], the binding result is reported as “binds”.

B2: ER0 (dsDNA)
DNA 1: ATGCTAGCTCCATCTGTGATTGCAATCAATGGCGGTGACGTACT
DNA 2: AGTACGTCACCGCCATTGATTGCAATCACAGATGGAGCTAGCAT
As for B2, the binding result (in series [2]; with AtWOX14 (monomer)) was “binds” throughout.

B3: ER1 (dsDNA)
DNA 1: ATGCTAGCTCCATCTGTGATTGACAATCAATGGCGGTGACGTACT
DNA 2: AGTACGTCACCGCCATTGATTGTCAATCACAGATGGAGCTAGCAT
With B3, the binding result (in series [2]; with AtWOX14 (monomer)) was “binds” each time.

B4: M1 (dsDNA)
DNA 1: ATGCTAGCTCCATCTGTATTGATTGTTTATGGCGGTGACGTACT
DNA 2: AGTACGTCACCGCCATAAACAATCAATACAGATGGAGCTAGCAT
With B4, the binding result with AtWOX14 (monomer) was “binds”.
